In patent US20230088052A1 (JIANGSU HENGRUI PHARMACEUTICALS, published 2023):
Read-outs that look alike come from different tables or passages of the source.

T1: his-tagged mouse IL-4R recombinant protein (m-IL-4R-his) (mouse, UniProt P16382 26-233)
T1 construct: range 26-233; also called Murine IL-4R-his; not shown: his tag
T1 sequence (looked up): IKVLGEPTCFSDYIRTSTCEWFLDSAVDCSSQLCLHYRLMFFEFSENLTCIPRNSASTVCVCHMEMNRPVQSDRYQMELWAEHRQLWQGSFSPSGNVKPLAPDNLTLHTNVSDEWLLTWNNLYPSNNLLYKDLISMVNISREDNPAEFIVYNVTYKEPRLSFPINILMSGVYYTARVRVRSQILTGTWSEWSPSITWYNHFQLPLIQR


How the values were obtained:
[1] = molecular target: T2, his-tagged human IL-4R recombinant protein (h-IL-4R-his) (human, UniProt P24394 26-232); experiment: binding ELISA, human IL-4R-his coated
T2 construct: range 26-232; Made by Acrobiosystems in HEK293; also called Human IL-4R-his; not shown: his tag
Method: ELISA experiment was used to detect binding properties of anti-IL-4R antibodies. A microplate was coated with his-tagged IL-4R recombinant protein. After the antibody was added to each well, the activity of the binding of the antibody to the antigen was detected by adding a secondary antibody (HRP-conjugated anti-primary antibody Fc antibody) and HRP substrate TMB.
Human or rhesus IL-4R-his protein was coated on a 96-well microplate, 100 μL per well at a concentration of 0.5 μg/mL, and incubated overnight at 4° C. The plate was washed three times with washing buffer at 250 μL per well. A blocking solution was added at 200 μL per well and the plate was incubated at room temperature for 2 h. The plate was washed three times with washing buffer at 250 μL per well. Anti-IL-4R antibody to be tested diluted in diluent was added at 100 μL per well. The plate was incubated at room temperature for 1 h. The plate was washed three times with washing buffer at 250 μL per well. HRP-labeled goat anti-human IgG secondary antibody diluted at 1:20000 with diluent was added at 100 μL per well. The plate was incubated at room temperature for 1 h. The plate was washed three times with washing buffer at 250 μL per well. TMB was added at 100 μL per well, and the mixture was reacted for 15 min in the dark. 0.16 M/L sulfuric acid was added at 50 μL per well. The OD value was read at 450 nm by a Thermo MultiSkanFc microplate reader and the binding EC₅₀ value of the anti-IL-4R antibody to IL-4R was calculated.

[2] = molecular target: T3, human IL-4R on cells (HEK-Blue IL-4 cells, TF-1 cells) (human, UniProt P24394 26-825); experiment: cell-based or functional assay
[3] = molecular target: T2, his-tagged human IL-4R recombinant …; experiment: Biacore SPR: antibody captured, IL-4R antigen in flow, 1:1 model
Text: Human antibody capture antibody was covalently coupled to a biosensor chip CMS of Biacore instrument (Biacore X100, GE) according to the method described in the instruction of human antibody capture kit (Cat #BR-1008-39, GE), and thus a certain amount of antibodies to be tested were captured based on affinity. Then a series of concentration gradients of IL-4R antigens (the IL-4R antigens all purchased from Acrobiosystems, Cat #ILR-H5221) flowed through the surface of chip, and the Biacore instrument (Biacore X100, GE) was used to detect the reaction signals in real time to obtain the binding and dissociation curves. After each cycle of dissociation was completed, the biochip was washed and regenerated with a regeneration solution prepared in the human antibody capture kit. The amino coupling kit used in the experiment was purchased from GE corporation (Cat #BR-1000-50, GE), and the buffer was HBS-EP+ 10× buffer solution (Cat #BR-1006-69, GE) diluted to 1× (pH 7.4) with D.I. Water.
The data obtained from the experiment were fitted with BiacoreX100 evaluation software 2.0 GE software with a (1:1) binding model to obtain affinity values.

[4] = molecular target: T4, humanized Fc-tagged human IL-4R recombinant protein (h-IL-4R-Fc) (human, UniProt P24394 26-232); experiment: blocking ELISA: human IL-4R-Fc coated, antibody blocks the binding of IL-4
T4 construct: range 1-232; The printed range starts at Met1, so it includes the signal peptide of the construct; also called Human IL-4R-Fc; not shown: Fc tag
Method: (§1) Human IL-4R-Fc protein was coated on a 96-well microplate, 100 μL per well at a concentration of 0.5 μg/mL, and incubated overnight at 4° C. The plate was washed three times with washing buffer at 250 μL per well. A blocking solution was added at 200 μL per well and the plate was incubated at room temperature for 2 h. The plate was washed three times with washing buffer at 250 μL per well. Anti-IL-4R antibody to be tested diluted in diluent was added at 100 μL per well, and the plate was incubated at room temperature for 1 h. The plate was washed three times with washing buffer at 250 μL per well. […] HRP-labeled Neutravidin diluted in a diluent at 1:5000 was added, and the plate was incubated at room temperature for 1 h. The plate was washed three times with washing buffer at 250 μL per well. TMB was added at 100 μL per well, and the mixture was reacted for 15 min in the dark. 0.16 M/L sulfuric acid was added at 50 μL per well.

[5] = molecular target: T3, human IL-4R on cells (HEK-Blue IL-4 …); experiment: cell-based or functional assay; remark: listed apart in the source
[6] = molecular target: T1, his-tagged mouse IL-4R recombinant …; experiment: ELISA, IL-4R-his coated on the plate
[7] = molecular target: T3, human IL-4R on cells (HEK-Blue IL-4 …); experiment: cell-based or functional assay; remark: listed apart in the source
[8] = molecular target: T3, human IL-4R on cells (HEK-Blue IL-4 …); experiment: cell-based or functional assay; remark: listed apart in the source
[9] = molecular target: T4, humanized Fc-tagged human IL-4R …; experiment: blocking ELISA of human IL-4/IL-4R
Method: as §1

| Binder | EC50 [1] [µg/mL] | Blocking binding of HEK293-Blue IL-4 cells (to IL-4) (IC50) [2] [µg/mL] | Inhibiting IL-4-related proliferation of TF-1 cells (IC50) [2] [µg/mL] | Kd [3] [pM] | IC50 [4] [µg/mL] | Blocking binding of HEK293-Blue IL-4 cells (to IL-4) (IC50) [5] [µg/mL] | Inhibiting IL-4-related proliferation of TF-1 cells (IC50) [5] [µg/mL] | binding result [6] | IC50 for blocking binding of HEK293-Blue IL-4 cells (to IL-4) [7] [µg/mL] | IC50 for inhibiting IL-4-related proliferation of TF-1 cells [7] [µg/mL] | Blocking binding of HEK293-Blue cells (to IL-4) (IC50) [8] [µg/mL] | Blocking binding of HEK293-Blue cells (to IL-13) (IC50) [8] [µg/mL] | Inhibiting IL-4-related proliferation of TF-1 cells (IC50) [8] [µg/mL] | Inhibiting IL-13-related proliferation of TF-1 cells (IC50) [8] [µg/mL] | IC50 [9] [µg/mL] |
| --- | --- | --- | --- | --- | --- | --- | --- | --- | --- | --- | --- | --- | --- | --- | --- |
| human-murine chimeric antibody 7B10-C (antibody, V domains shown, Expressed in HEK293 cells) VH: QVQLQQPGTELLKPGASVSLSCKASGYTFTSYWMHWVKQRPGQGLEWIGLIHPNSDTTKFSENFKTRATLTIDKSSSTAYMKLSSLTSEDSAVYYCAKSKIITTIVARHWYFDVWGTGTTVTVSS VL: DIVLTQSPPSLAVSLGQRATISCKASQSVDYGGDSYMNWYQQKLGQPPKVLIYAASNLESGIPARFSGSGSGTDFTLNIHPVEEEDVATYYCQHSNENPPTFGGGTKLEIK | 0.0118 | 0.00903 | 0.0464 | 278 | 0.162 |  |  |  |  |  |  |  |  |  |  |
| humanized antibody hu7B10 (antibody, human IgG1, kappa, V domains shown, Uses the VH-b heavy chain and the VL-b light chain) VH: EVQLVQSGAEVKKPGASVKVSCKASGYTFTSYWMHWVRQAPGQGLEWMGLIHPNSDTTKFSENFKTRVTMTIDTSISTAYMELSRLRSDDTAVYYCAKSKIITTIVARHWYFDVWGQGTTVTVSS VL: DIVLTQTPLSLSVTPGQPASISCKASQSVDYGGDSYMNWYLQKPGQPPQLLIYAASNLESGVPDRFSGSGSGTDFTLKISRVEAEDVGVYYCQHSNENPPTFGGGTKVEIKR | 0.012 |  |  | 284 | 0.0753 | 0.00687 | 0.112 |  |  |  |  |  |  |  |  |
| murine monoclonal antibody 25G7 (antibody, V domains shown, also called hybridoma 25G7) VH: EVQLVESGGGLVKPGGSLKLSCAASGFTFSDYGMHWVRQAPEKGLEWVAFISSGSSIIYYADIVKGRSTISRDNAKNTLFLQMTSLRSEDTAMYYCTRGNKRGFFDYWGQGTILTVSS VL: QIVLTQSPALMSASPGEKVTMTCNASSSVSYMYWYQRKPRSSPKPWIYLTSNLASGVPVRFSGSGSGTSYSLTISSMEAEDAATYYCQQWRSNPPMLTFGSGTKLEVK | 0.00332 |  |  |  | 0.00813 |  |  | no binding | 0.000975 | 0.0513 |  |  |  |  |  |
| hu25G7-A antibody (antibody, human IgG4 S228P, kappa, V domains shown) VH: EVQLVESGGGLVQPGGSLRLSCAASGFTFSDYGMHWVRQAPGKGLEWVAFISSGSSIIYYADIVKGRSTISRDNAKNTLYLQMNSLRAEDTAVYYCTRGNKRGFFDYWGQGTLVTVSS VL: EIVLTQSPATLSLSPGERATLSCRASSSVPYMYWYQQKPGQAPRLLIYLTSNLASGIPARFSGSGSGTDFTLTISSLEPEDFAVYYCQQWRAYPPMLTFGGGTKVEIKR |  |  |  |  |  |  |  |  |  |  | 0.00649 | 0.01 | 0.0837 | 0.0132 | 0.144 |
| human-murine chimeric antibody 25G7-C (antibody, V domains shown, Expressed in HEK293 cells) VH: EVQLVESGGGLVKPGGSLKLSCAASGFTFSDYGMHWVRQAPEKGLEWVAFISSGSSIIYYADIVKGRSTISRDNAKNTLFLQMTSLRSEDTAMYYCTRGNKRGFFDYWGQGTILTVSS VL: QIVLTQSPALMSASPGEKVTMTCNASSSVSYMYWYQRKPRSSPKPWIYLTSNLASGVPVRFSGSGSGTSYSLTISSMEAEDAATYYCQQWRSNPPMLTFGSGTKLEVK | 0.00909 | 0.00202 | 0.0203 | 725 | 0.0397 |  |  |  |  |  |  |  |  |  |  |
| hu25G7-B antibody (antibody, human IgG4 S228P, kappa, V domains shown) VH: EVQLVESGGGLVQPGGSLRLSCAASGFTFSDYGMHWVRQAPGKGLEWVAFISSGSSIIYYADIVKGRSTISRDNAKNTLYLQMNSLRAEDTAVYYCTRGNKRGFFDYWGQGTLVTVSS VL: EIVLTQSPATLSLSPGERATLSCRASPGVPPLAWYQQKPGQAPRLLIYLASSRPSGIPARFSGSGSGTDFTLTISSLEPEDFAVYYCQQWRSNPPMLTFGGGTKVEIKR |  |  |  |  |  |  |  |  |  |  | 0.0066 | 0.00838 | 0.051 | 0.0137 | 0.108 |
| humanized antibody hu25G7 (antibody, human IgG4 S228P, kappa, V domains shown, Uses the VH-c heavy chain and the VL-a light chain; also called wild-type hu25G7) VH: EVQLVESGGGLVQPGGSLRLSCAASGFTFSDYGMHWVRQAPGKGLEWVAFISSGSSIIYYADIVKGRSTISRDNAKNSLYLQMNSLRAEDTAVYYCTRGNKRGFFDYWGQGTLVTVSS VL: EIVLTQSPATLSLSPGERATLSCNASSSVSYMYWYQQKPGQAPRLLIYLTSNLASGIPARFSGSGSGTDFTLTISSLEPEDFAVYYCQQWRSNPPMLTFGGGTKVEIKR | 0.00341 |  |  | 1070 | 0.0236 | 0.000943 | 0.0296 |  |  |  |  |  |  |  |  |
| Dupilumab (antibody, V domains shown) VH: EVQLVESGGGLEQPGGSLRLSCAGSGFTFRDYAMTWVRQAPGKGLEWVSSISGSGGNTYYADSVKGRFTISRDNSKNTLYLQMNSLRAEDTAVYYCAKDRLSITIRPRYYGLDVWGQGTTVTVSS VL: DIVMTQSPLSLPVTPGEPASISCRSSQSLLYSIGYNYLDWYLQKSGQSPQLLIYLGSNRASGVPDRFSGSGSGTDFTLKISRVEAEDVGFYYCMQALQTPYTFGQGTKLEIKR |  | 0.00324 | 0.207 |  |  | 0.000667 | 0.491 |  | 0.00507 | 0.102 | 0.0125 | 0.0148 | 0.101 | 0.0181 |  |
